# Assay results as given in publication PMC2696590.
# Columns and labels:
# [1] = target: NTS1-7l, MBP and TrxA-H10 fusion (rat) (UniProt P20789); assay: radioligand binding; saturation binding of 1 pM to 10 nM [^3H]-NT to intact E. coli cells expressing the receptor; TEBB buffer, no detergents, 2 hours on ice, GF/B filters; apparent KD, one-site with ligand depletion
# [2] = target: NTS1-7o, MBP and TrxA-H10 fusion (rat) (UniProt P20789); assay: as above
# [3] = target: SR142948; assay: competition binding assay against [3H]-NT on intact E. coli cells; settings: 5 nM agonist [3H]-NT
# [4] = target: [^3H]-neurotensin; assay: saturation binding assay on intact E. coli cells
# Sequence of wild-type NTS1 (N-terminally truncated rat neurotensin type I receptor starting at Thr43), MBP and TrxA-H10 fusion (from UniProt P20789) A86L; I260A; F342A; F358A (P20789 whole entry A86L/I260A/F342A/F358A, looked up, the tested form may be a part): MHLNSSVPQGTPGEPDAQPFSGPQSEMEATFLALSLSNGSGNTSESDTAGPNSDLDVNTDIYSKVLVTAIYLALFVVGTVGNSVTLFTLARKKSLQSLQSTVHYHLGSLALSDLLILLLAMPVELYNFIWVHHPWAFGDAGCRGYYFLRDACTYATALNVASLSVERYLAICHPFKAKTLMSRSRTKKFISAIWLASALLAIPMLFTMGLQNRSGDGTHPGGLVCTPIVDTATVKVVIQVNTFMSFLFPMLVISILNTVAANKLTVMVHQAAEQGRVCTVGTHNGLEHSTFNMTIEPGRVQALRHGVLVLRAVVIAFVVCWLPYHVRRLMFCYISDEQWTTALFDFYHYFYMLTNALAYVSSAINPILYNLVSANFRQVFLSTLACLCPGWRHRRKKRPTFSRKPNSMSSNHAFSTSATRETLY
# Sequence of wild-type NTS1 (N-terminally truncated rat neurotensin type I receptor starting at Thr43), MBP and TrxA-H10 fusion (from UniProt P20789) A86L; F358A (P20789 whole entry A86L/F358A, looked up, the tested form may be a part): as the sequence (P20789 whole entry A86L/I260A/F342A/F358A, looked up, the tested form may be a part) above, with A260I, A342F counted along it
# Sequence of wild-type NTS1 (N-terminally truncated rat neurotensin type I receptor starting at Thr43), MBP and TrxA-H10 fusion (from UniProt P20789) NTS1-7f (P20789 whole entry, looked up, change not shown, the tested form may be a part): as the sequence (P20789 whole entry A86L/I260A/F342A/F358A, looked up, the tested form may be a part) above, with L86A, A260I, A342F, A358F counted along it
# Sequence of wild-type NTS1 (N-terminally truncated rat neurotensin type I receptor starting at Thr43), MBP and TrxA-H10 fusion (from UniProt P20789) NTS1-7o (P20789 whole entry, looked up, change not shown, the tested form may be a part): as the sequence (P20789 whole entry A86L/I260A/F342A/F358A, looked up, the tested form may be a part) above, with L86A, A260I, A342F, A358F counted along it
# Sequence of wild-type NTS1 (N-terminally truncated rat neurotensin type I receptor starting at Thr43), MBP and TrxA-H10 fusion (from UniProt P20789) NTS1-7l (P20789 whole entry, looked up, change not shown, the tested form may be a part): as the sequence (P20789 whole entry A86L/I260A/F342A/F358A, looked up, the tested form may be a part) above, with L86A, A260I, A342F, A358F counted along it
# Sequence of wild-type NTS1 (N-terminally truncated rat neurotensin type I receptor starting at Thr43), MBP and TrxA-H10 fusion (from UniProt P20789) NTS1-7g (P20789 whole entry, looked up, change not shown, the tested form may be a part): as the sequence (P20789 whole entry A86L/I260A/F342A/F358A, looked up, the tested form may be a part) above, with L86A, A260I, A342F, A358F counted along it
# Sequence of wild-type NTS1 (N-terminally truncated rat neurotensin type I receptor starting at Thr43), MBP and TrxA-H10 fusion (from UniProt P20789) NTS1-7e (P20789 whole entry, looked up, change not shown, the tested form may be a part): as the sequence (P20789 whole entry A86L/I260A/F342A/F358A, looked up, the tested form may be a part) above, with L86A, A260I, A342F, A358F counted along it
# Sequence of NTS1-7o, MBP and TrxA-H10 fusion (rat) (P20789 43-424): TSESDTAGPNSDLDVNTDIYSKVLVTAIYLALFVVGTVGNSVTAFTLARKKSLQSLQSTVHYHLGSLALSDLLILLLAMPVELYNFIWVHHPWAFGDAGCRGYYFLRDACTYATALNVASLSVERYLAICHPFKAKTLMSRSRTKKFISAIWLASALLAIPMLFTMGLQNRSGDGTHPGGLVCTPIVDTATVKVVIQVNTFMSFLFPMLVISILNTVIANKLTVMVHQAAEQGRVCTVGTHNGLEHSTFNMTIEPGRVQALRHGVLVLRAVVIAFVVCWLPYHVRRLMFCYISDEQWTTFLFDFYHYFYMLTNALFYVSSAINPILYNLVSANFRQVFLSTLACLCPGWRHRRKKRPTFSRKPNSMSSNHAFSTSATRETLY
# Sequence of NTS1-7l, MBP and TrxA-H10 fusion (rat) (P20789 43-424): as above
Kd [1] [nM],Kd [2] [nM],Ki [3] [nM],Kd [4] [nM],Substance
0.22,0.03,,,[^3H]-neurotensin (peptide)
,,0.58,,"wild-type NTS1 (N-terminally truncated rat neurotensin type I receptor starting at Thr43), MBP and TrxA-H10 fusion (from UniProt P20789) A86L; F358A"
,,1.2,,"wild-type NTS1 (N-terminally truncated rat neurotensin type I receptor starting at Thr43), MBP and TrxA-H10 fusion (from UniProt P20789) A86L; I260A; F342A; F358A"
,,0.91,0.14,"wild-type NTS1 (N-terminally truncated rat neurotensin type I receptor starting at Thr43), MBP and TrxA-H10 fusion (from UniProt P20789) NTS1-7e"
,,0.73,0.04,"wild-type NTS1 (N-terminally truncated rat neurotensin type I receptor starting at Thr43), MBP and TrxA-H10 fusion (from UniProt P20789) NTS1-7f"
,,2.8,0.21,"wild-type NTS1 (N-terminally truncated rat neurotensin type I receptor starting at Thr43), MBP and TrxA-H10 fusion (from UniProt P20789) NTS1-7g"
,,0.32,,"wild-type NTS1 (N-terminally truncated rat neurotensin type I receptor starting at Thr43), MBP and TrxA-H10 fusion (from UniProt P20789) NTS1-7l"
,,0.22,,"wild-type NTS1 (N-terminally truncated rat neurotensin type I receptor starting at Thr43), MBP and TrxA-H10 fusion (from UniProt P20789) NTS1-7o"
